Source: the supplement of paper PMC9112550, “Optimization of the antimicrobial peptide Bac7 by deep mutational scanning” (BMC Biology, 2022)

Tested on: Escherichia coli TOP10
Assay: shrunken log2 fold change of peptide-encoding DNA abundance (4.5 h post-induction vs induction); higher = less antimicrobial activity (less host growth inhibition)
Conditions: time post-induction: 4.5 h; library: site-saturation at positions 5, 18, 19, 20
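Further: peptides expressed intracellularly from a pBAD plasmid library in pooled LB shake-flask culture, induced with 0.3% L-arabinose, DNA abundance read by NGS, three biological replicates, DESeq2 with apeglm shrinkage.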

RRIRTRPPRLPRPRPRPVHRPRP
shrunken log2 fold change: -0.0993

RRIRTRPPRLPRPRPRPVKAPRP
shrunken log2 fold change: 0.0375

RRIRTRPPRLPRPRPRPVMDPRP
shrunken log2 fold change: -0.478

RRIRTRPPRLPRPRPRPVMEPRP
shrunken log2 fold change: 0.187

RRIRTRPPRLPRPRPRPVMPPRP
shrunken log2 fold change: 0.372

RRIRTRPPRLPRPRPRPVNKPRP
shrunken log2 fold change: 0.0243

RRIRTRPPRLPRPRPRPVPGPRP
shrunken log2 fold change: 0.151

RRIRTRPPRLPRPRPRPVPIPRP
shrunken log2 fold change: -0.0974

RRIRTRPPRLPRPRPRPVPVPRP
shrunken log2 fold change: 0.0547

RRIRTRPPRLPRPRPRPVQAPRP
shrunken log2 fold change: 0.0641

RRIRTRPPRLPRPRPRPVQNPRP
shrunken log2 fold change: 0.138

RRIRTRPPRLPRPRPRPVSQPRP
shrunken log2 fold change: 0.0169

RRIRTRPPRLPRPRPRPVWNPRP
shrunken log2 fold change: -0.117

RRIRTRPPRLPRPRPRPVWSPRP
shrunken log2 fold change: -0.00993

RRIRTRPPRLPRPRPRPVYEPRP
shrunken log2 fold change: 0.00717

RRIRTRPPRLPRPRPRPVYHPRP
shrunken log2 fold change: -1.34

RRIRTRPPRLPRPRPRPVYLPRP
shrunken log2 fold change: -1.16

RRIRTRPPRLPRPRPRPWCEPRP
shrunken log2 fold change: 0.0211

RRIRTRPPRLPRPRPRPWDHPRP
shrunken log2 fold change: -0.155

RRIRTRPPRLPRPRPRPWDQPRP
shrunken log2 fold change: -0.00674

RRIRTRPPRLPRPRPRPWDVPRP
shrunken log2 fold change: -0.092

RRIRTRPPRLPRPRPRPWEMPRP
shrunken log2 fold change: -0.0783

RRIRTRPPRLPRPRPRPWERPRP
shrunken log2 fold change: -0.0102

RRIRTRPPRLPRPRPRPWFCPRP
shrunken log2 fold change: -0.392

RRIRTRPPRLPRPRPRPWGDPRP
shrunken log2 fold change: -0.273

RRIRTRPPRLPRPRPRPWGEPRP
shrunken log2 fold change: 0.183

RRIRTRPPRLPRPRPRPWGFPRP
shrunken log2 fold change: 0.0102

RRIRTRPPRLPRPRPRPWGHPRP
shrunken log2 fold change: -0.066

RRIRTRPPRLPRPRPRPWGVPRP
shrunken log2 fold change: -0.0284

RRIRTRPPRLPRPRPRPWHMPRP
shrunken log2 fold change: 0.0039

RRIRTRPPRLPRPRPRPWLQPRP
shrunken log2 fold change: -0.187

RRIRTRPPRLPRPRPRPWMCPRP
shrunken log2 fold change: 0.0404

RRIRTRPPRLPRPRPRPWMQPRP
shrunken log2 fold change: -0.0757

RRIRTRPPRLPRPRPRPWNQPRP
shrunken log2 fold change: -0.543

RRIRTRPPRLPRPRPRPWPAPRP
shrunken log2 fold change: 0.61

RRIRTRPPRLPRPRPRPWPCPRP
shrunken log2 fold change: -0.0128

RRIRTRPPRLPRPRPRPWQPPRP
shrunken log2 fold change: -0.0263

RRIRTRPPRLPRPRPRPWRWPRP
shrunken log2 fold change: 0.554

RRIRTRPPRLPRPRPRPWSQPRP
shrunken log2 fold change: 0.0431

RRIRTRPPRLPRPRPRPWSVPRP
shrunken log2 fold change: -0.199

RRIRTRPPRLPRPRPRPWSWPRP
shrunken log2 fold change: -0.0374

RRIRTRPPRLPRPRPRPWVMPRP
shrunken log2 fold change: -0.125

RRIRTRPPRLPRPRPRPWWGPRP
shrunken log2 fold change: 0.221

RRIRTRPPRLPRPRPRPYCWPRP
shrunken log2 fold change: -0.109

RRIRTRPPRLPRPRPRPYDKPRP
shrunken log2 fold change: -0.389

RRIRTRPPRLPRPRPRPYFHPRP
shrunken log2 fold change: -0.909

RRIRTRPPRLPRPRPRPYFSPRP
shrunken log2 fold change: -0.156

RRIRTRPPRLPRPRPRPYGDPRP
shrunken log2 fold change: 0.00839

RRIRTRPPRLPRPRPRPYGWPRP
shrunken log2 fold change: -0.123

RRIRTRPPRLPRPRPRPYHPPRP
shrunken log2 fold change: -0.304

RRIRTRPPRLPRPRPRPYIEPRP
shrunken log2 fold change: -1.14

RRIRTRPPRLPRPRPRPYIMPRP
shrunken log2 fold change: -0.753

RRIRTRPPRLPRPRPRPYISPRP
shrunken log2 fold change: -0.382

RRIRTRPPRLPRPRPRPYIYPRP
shrunken log2 fold change: -0.706

RRIRTRPPRLPRPRPRPYKFPRP
shrunken log2 fold change: 0.00477

RRIRTRPPRLPRPRPRPYKLPRP
shrunken log2 fold change: -0.215

RRIRTRPPRLPRPRPRPYKYPRP
shrunken log2 fold change: -1.14

RRIRTRPPRLPRPRPRPYMHPRP
shrunken log2 fold change: -0.685

RRIRTRPPRLPRPRPRPYMYPRP
shrunken log2 fold change: -0.767

RRIRTRPPRLPRPRPRPYPEPRP
shrunken log2 fold change: -0.817

RRIRTRPPRLPRPRPRPYPVPRP
shrunken log2 fold change: 0.154

RRIRTRPPRLPRPRPRPYPYPRP
shrunken log2 fold change: -0.0787

RRIRTRPPRLPRPRPRPYQKPRP
shrunken log2 fold change: -0.197

RRIRTRPPRLPRPRPRPYQSPRP
shrunken log2 fold change: -0.465

RRIRTRPPRLPRPRPRPYRFPRP
shrunken log2 fold change: -0.0191

RRIRTRPPRLPRPRPRPYRTPRP
shrunken log2 fold change: 0.0638

RRIRTRPPRLPRPRPRPYSFPRP
shrunken log2 fold change: -0.552

RRIRTRPPRLPRPRPRPYTYPRP
shrunken log2 fold change: -0.489

RRIRTRPPRLPRPRPRPYVPPRP
shrunken log2 fold change: -0.1

RRIRTRPPRLPRPRPRPYWQPRP
shrunken log2 fold change: -0.435

RRIRTRPPRLPRPRPRPYYEPRP
shrunken log2 fold change: -0.0557

RRIRVRPPRLPRPRPRPAAKPRP
shrunken log2 fold change: 0.348

RRIRVRPPRLPRPRPRPAANPRP
shrunken log2 fold change: -0.00167

RRIRVRPPRLPRPRPRPAARPRP
shrunken log2 fold change: 0.47

RRIRVRPPRLPRPRPRPACMPRP
shrunken log2 fold change: -0.0781

RRIRVRPPRLPRPRPRPADIPRP
shrunken log2 fold change: -0.235

RRIRVRPPRLPRPRPRPAEAPRP
shrunken log2 fold change: 0.729

RRIRVRPPRLPRPRPRPAEVPRP
shrunken log2 fold change: 0.00588

RRIRVRPPRLPRPRPRPAFNPRP
shrunken log2 fold change: -0.416

RRIRVRPPRLPRPRPRPAFPPRP
shrunken log2 fold change: 0.246

RRIRVRPPRLPRPRPRPAFQPRP
shrunken log2 fold change: 0.151

RRIRVRPPRLPRPRPRPAIAPRP
shrunken log2 fold change: 0.107

RRIRVRPPRLPRPRPRPAIKPRP
shrunken log2 fold change: -0.202

RRIRVRPPRLPRPRPRPAKYPRP
shrunken log2 fold change: -0.575

RRIRVRPPRLPRPRPRPALCPRP
shrunken log2 fold change: 0.555

RRIRVRPPRLPRPRPRPAMFPRP
shrunken log2 fold change: -0.0685

RRIRVRPPRLPRPRPRPAMQPRP
shrunken log2 fold change: 0.193

RRIRVRPPRLPRPRPRPANHPRP
shrunken log2 fold change: -0.0489

RRIRVRPPRLPRPRPRPAQDPRP
shrunken log2 fold change: 0.0947

RRIRVRPPRLPRPRPRPAQWPRP
shrunken log2 fold change: 0.188

RRIRVRPPRLPRPRPRPARGPRP
shrunken log2 fold change: 0.681

RRIRVRPPRLPRPRPRPARHPRP
shrunken log2 fold change: 0.287

RRIRVRPPRLPRPRPRPARRPRP
shrunken log2 fold change: 0.382

RRIRVRPPRLPRPRPRPASQPRP
shrunken log2 fold change: 0.128

RRIRVRPPRLPRPRPRPASTPRP
shrunken log2 fold change: -0.311

RRIRVRPPRLPRPRPRPATVPRP
shrunken log2 fold change: -0.154

RRIRVRPPRLPRPRPRPAVDPRP
shrunken log2 fold change: 0.192

RRIRVRPPRLPRPRPRPAVSPRP
shrunken log2 fold change: 0.0786

RRIRVRPPRLPRPRPRPAWHPRP
shrunken log2 fold change: 0.657

RRIRVRPPRLPRPRPRPAWMPRP
shrunken log2 fold change: 0.0871

RRIRVRPPRLPRPRPRPCAFPRP
shrunken log2 fold change: -0.264

RRIRVRPPRLPRPRPRPCAWPRP
shrunken log2 fold change: 0.27

RRIRVRPPRLPRPRPRPCAYPRP
shrunken log2 fold change: -0.336

RRIRVRPPRLPRPRPRPCDPPRP
shrunken log2 fold change: -0.107

RRIRVRPPRLPRPRPRPCFPPRP
shrunken log2 fold change: 0.228

RRIRVRPPRLPRPRPRPCGCPRP
shrunken log2 fold change: 0.0165

RRIRVRPPRLPRPRPRPCGIPRP
shrunken log2 fold change: 0.0878

RRIRVRPPRLPRPRPRPCHKPRP
shrunken log2 fold change: -0.203

RRIRVRPPRLPRPRPRPCIQPRP
shrunken log2 fold change: -0.00992

RRIRVRPPRLPRPRPRPCKMPRP
shrunken log2 fold change: -0.159

RRIRVRPPRLPRPRPRPCPHPRP
shrunken log2 fold change: -0.0391

RRIRVRPPRLPRPRPRPCPTPRP
shrunken log2 fold change: -0.17

RRIRVRPPRLPRPRPRPCQMPRP
shrunken log2 fold change: -0.486

RRIRVRPPRLPRPRPRPCQWPRP
shrunken log2 fold change: -0.0851

RRIRVRPPRLPRPRPRPCRCPRP
shrunken log2 fold change: -0.239

RRIRVRPPRLPRPRPRPCSEPRP
shrunken log2 fold change: -0.128

RRIRVRPPRLPRPRPRPCTMPRP
shrunken log2 fold change: -0.193

RRIRVRPPRLPRPRPRPCTPPRP
shrunken log2 fold change: -0.13

RRIRVRPPRLPRPRPRPCVKPRP
shrunken log2 fold change: -0.657

RRIRVRPPRLPRPRPRPCWLPRP
shrunken log2 fold change: -0.0153

RRIRVRPPRLPRPRPRPCWYPRP
shrunken log2 fold change: -0.544

RRIRVRPPRLPRPRPRPDAAPRP
shrunken log2 fold change: 0.976

RRIRVRPPRLPRPRPRPDAFPRP
shrunken log2 fold change: 0.203

RRIRVRPPRLPRPRPRPDARPRP
shrunken log2 fold change: 0.262

RRIRVRPPRLPRPRPRPDCDPRP
shrunken log2 fold change: -0.102

RRIRVRPPRLPRPRPRPDCEPRP
shrunken log2 fold change: -0.0964

RRIRVRPPRLPRPRPRPDCFPRP
shrunken log2 fold change: 0.0303

RRIRVRPPRLPRPRPRPDDAPRP
shrunken log2 fold change: 0.134

RRIRVRPPRLPRPRPRPDEKPRP
shrunken log2 fold change: 0.11

RRIRVRPPRLPRPRPRPDEQPRP
shrunken log2 fold change: 0.353

RRIRVRPPRLPRPRPRPDFCPRP
shrunken log2 fold change: 0.183

RRIRVRPPRLPRPRPRPDFMPRP
shrunken log2 fold change: -0.0875

RRIRVRPPRLPRPRPRPDFVPRP
shrunken log2 fold change: -0.0423

RRIRVRPPRLPRPRPRPDIWPRP
shrunken log2 fold change: 0.0543

RRIRVRPPRLPRPRPRPDLFPRP
shrunken log2 fold change: -0.045

RRIRVRPPRLPRPRPRPDPKPRP
shrunken log2 fold change: 0.203

RRIRVRPPRLPRPRPRPDRHPRP
shrunken log2 fold change: -0.0428

RRIRVRPPRLPRPRPRPDTPPRP
shrunken log2 fold change: -0.0915

RRIRVRPPRLPRPRPRPDTTPRP
shrunken log2 fold change: -1.05

RRIRVRPPRLPRPRPRPDVLPRP
shrunken log2 fold change: 0.00338

RRIRVRPPRLPRPRPRPDVYPRP
shrunken log2 fold change: -0.0411

RRIRVRPPRLPRPRPRPDWRPRP
shrunken log2 fold change: 0.141

RRIRVRPPRLPRPRPRPEEDPRP
shrunken log2 fold change: 0.0704

RRIRVRPPRLPRPRPRPEEPPRP
shrunken log2 fold change: 0.0911

RRIRVRPPRLPRPRPRPEHMPRP
shrunken log2 fold change: -0.0512

RRIRVRPPRLPRPRPRPEHWPRP
shrunken log2 fold change: 0.28

RRIRVRPPRLPRPRPRPEIAPRP
shrunken log2 fold change: -0.0307

RRIRVRPPRLPRPRPRPEIFPRP
shrunken log2 fold change: 0.00503

RRIRVRPPRLPRPRPRPEKQPRP
shrunken log2 fold change: 0.101

RRIRVRPPRLPRPRPRPELEPRP
shrunken log2 fold change: 0.292
